Reference: PMC8188256 (Data in Brief, 2021)
Where “and” joins values, the source holds several entries; their conditions need not be identical. Equal values may be shown once.

Assays:
DnaK = DnaK (Escherichia coli, UniProt P0A6Y8); experiment: biochemical
DnaKLS (E. coli) = DnaKLS (E. coli) (UniProt P0A6Y8); experiment: SPR
[1] = target: PfHsp70-zLS (Plasmodium falciparum); experiment: SPR
[2] = target: PfHsp70–1 (Plasmodium falciparum); experiment: SPR
[3] = target: PfHsp70–1LS (Plasmodium falciparum); experiment: SPR
[4] = target: Plasmodium falciparum Hsp110 (PfHsp70-z) (Plasmodium falciparum); experiment: SPR

Chain of DnaJ (P08622 whole entry): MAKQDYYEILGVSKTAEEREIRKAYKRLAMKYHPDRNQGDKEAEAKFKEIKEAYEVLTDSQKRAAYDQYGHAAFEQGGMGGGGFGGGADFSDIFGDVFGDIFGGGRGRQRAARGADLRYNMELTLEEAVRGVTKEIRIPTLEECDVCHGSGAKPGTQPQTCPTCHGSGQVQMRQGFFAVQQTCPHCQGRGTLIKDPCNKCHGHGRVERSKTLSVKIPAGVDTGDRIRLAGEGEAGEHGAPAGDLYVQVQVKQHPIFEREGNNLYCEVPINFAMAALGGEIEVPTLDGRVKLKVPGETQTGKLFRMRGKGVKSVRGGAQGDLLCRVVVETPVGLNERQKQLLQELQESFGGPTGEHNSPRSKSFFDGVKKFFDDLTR
Chain of DnaK (P0A6Y8 2-638): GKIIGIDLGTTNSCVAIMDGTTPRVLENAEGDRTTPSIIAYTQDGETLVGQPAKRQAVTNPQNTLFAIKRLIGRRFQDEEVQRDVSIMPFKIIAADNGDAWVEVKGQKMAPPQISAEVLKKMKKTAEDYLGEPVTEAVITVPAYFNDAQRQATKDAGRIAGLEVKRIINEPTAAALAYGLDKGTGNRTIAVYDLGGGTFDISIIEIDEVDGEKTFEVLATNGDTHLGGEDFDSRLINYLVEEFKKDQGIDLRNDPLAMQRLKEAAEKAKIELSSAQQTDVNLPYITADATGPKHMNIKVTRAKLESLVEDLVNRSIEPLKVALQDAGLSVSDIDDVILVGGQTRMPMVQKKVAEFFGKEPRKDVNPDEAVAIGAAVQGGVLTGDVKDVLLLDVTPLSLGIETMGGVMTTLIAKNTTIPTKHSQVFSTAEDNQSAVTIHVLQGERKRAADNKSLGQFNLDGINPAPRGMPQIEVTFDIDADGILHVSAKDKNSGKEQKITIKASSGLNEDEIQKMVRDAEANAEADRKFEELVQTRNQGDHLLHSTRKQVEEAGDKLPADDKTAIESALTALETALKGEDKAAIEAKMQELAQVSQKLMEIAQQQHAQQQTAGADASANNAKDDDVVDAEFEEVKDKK

Compound Nc1ncnc2c1ncn2[C@@H]1O[C@H](COP(=O)(O)OP(=O)(O)OP(=O)(O)O)[C@@H](O)[C@H]1O [ATP] has a Kd (DnaK) of 398 nM.
In the case of “DnaJ (from UniProt P08622 1-376) (natural protein)”, the koff (DnaKLS (E. coli)) is reported as 0.0676 s⁻¹ and 0.0732 s⁻¹ and 0.0522 s⁻¹.
In the case of PfHsp40 (natural protein), the kon [1] is reported as 9020 M⁻¹ s⁻¹ and 6170 M⁻¹ s⁻¹ and 7250 M⁻¹ s⁻¹, the koff [2] is reported as 0.0815 s⁻¹ and 0.0866 s⁻¹ and 0.0361 s⁻¹ and the kon [3] is reported as 6040 M⁻¹ s⁻¹ and 2200 M⁻¹ s⁻¹ and 6140 M⁻¹ s⁻¹. The koff [4] was 0.0713 s⁻¹ and 0.0396 s⁻¹ and 0.0369 s⁻¹.
